{"source": "patent US20040013664A1", "about": "(published 2004)", "binders": {"B1": {"name": "Soluble human FLAG-FasL (synthesized at HGS) (ligand, UniProt P48023 130-281, looked up, not shown: small tags and cut ends)", "chain": "QIGHPSPPPEKKELRKVAHLTGKSNSRSMPLEWEDTYGIVLLSGVKYKKGGLVINETGLYFVYSKVYFRGQSCNNLPLSHKVYMRNSKYPQDLVMMEGKMMSYCTTGQMWARSSYLGAVFNLTSADHLYVNVSELSLVNFEESQTFFGLYKL"}, "B2": {"name": "TNFR6 alpha-Fc (full length TNFR-6 alpha, amino acids 1-300 of SEQ ID NO:2, fused to an Fc domain of human IgG1) (Fc fusion, not shown: a dimerising Fc or GST)", "chain": "VAETPTYPWRDAETGERLVCAQCPPGTFVQRPCRRDSPTTCGPCPPRHYTQFWNYLERCRYCNVLCGEREEEARACHATHNRACRCRTGFFAHAGFCLEHASCPPGAGVIAPGTPSQNTQCQPCPPGTFSASSSSSEQCQPHRNCTALGLALNVPGSSSHDTLCTSCTGFPLSTRVPGAEECERAVIDFVAFQDISIKRLQRLLQALEAPEGWGPTPRAGRAALQLKLRRRLTELLGAQDGALLVRLLQALRVARMPGLERSVRERFLPVH"}, "B3": {"name": "HVEM/TR2-Fc (Fc fusion)", "chain": "LPSCKEDEYPVGSECCPKCSPGYRVKEACGELTGTVCEPCPPGTYIAHLNGLSKCLQCQMCDPAMGLRASRNCSRTENAVCGCSPGHFCIVQDGDHCAACRAYATSSPGQRVQKGGTESQDTLCQNCPPGTFSPNGTLEECQHQTKCSWLVTKAGAGTSSSHWV", "notes": "also called soluble form of HVEM/TR2-Fc; not shown: Fc portion"}, "B4": {"name": "LTβR-Fc (Fc fusion, UniProt P36941 31-227, looked up)", "chain": "QAVPPYASENQTCRDQEKEYYEPQHRICCSRCPPGTYVSAKCSRIRDTVCATCAENSYNEHWNYLTICQLCRPCDPVMGLEEIAPCTSKRKTQCRCQPGMFCAAWALECTHCELLSDCPPGTEAELKDEVGKGNNHCVPCKAGHFQNTSSPSARCQPHTRCENQGLVEAAPGTAQSDTTCKNPLEPLPPEMSGTMLM", "notes": "also called LTbetaR-Fc; LTBR-Fc; not shown: Fc portion"}, "B5": {"name": "TR6 (full-length human TNFR-6 alpha without Fc) (receptor)", "chain": "B2 chain", "notes": "Full-length cDNA (aa 1-300) expressed in Sf9 cells; also called TR6-non-Fc; TR6 non-Fc"}, "B6": {"name": "DcR1-Fc (Fc-fusion form of the extracellular domain) (Fc fusion, UniProt O14798 26-221, looked up)", "chain": "ATTARQEEVPQQTVAPQQQRHSFKGEECPAGSHRSEHTGACNPCTEGVDYTNASNNEPSCFPCTVCKSDQKHKSSCTMTRDTVCQCKEGTFRNENSPEMCRKCSRCPSGEVQVSNCTSWDDIQCVEEFGANATVETPAAEETMNTSPGTPAPAAEETMNTSPGTPAPAAEETMTTSPGTPAPAAEETMTTSPGTPA", "notes": "extracellular domain; not shown: Fc portion"}, "B7": {"name": "OPG-Fc (Fc-fusion form of the extracellular domain) (Fc fusion, UniProt O00300 22-194, looked up)", "chain": "ETFPPKYLHYDEETSHQLLCDKCPPGTYLKQHCTAKWKTVCAPCPDHYYTDSWHTSDECLYCSPVCKELQYVKQECNRTHNRVCECKEGRYLEIEFCLKHRSCPPGFGVVQAGTPERNTVCKRCPDGFFSNETSSKAPCRKHTNCSVFGLLLTQKGNATHDNICSGNSESTQK", "notes": "as for B6"}}, "key": {"[1]": {"molecular_target": "T1, Fas receptor on human cells (Jurkat, HT-29) (human, UniProt P25445 26-335)", "T1 sequence (looked up)": "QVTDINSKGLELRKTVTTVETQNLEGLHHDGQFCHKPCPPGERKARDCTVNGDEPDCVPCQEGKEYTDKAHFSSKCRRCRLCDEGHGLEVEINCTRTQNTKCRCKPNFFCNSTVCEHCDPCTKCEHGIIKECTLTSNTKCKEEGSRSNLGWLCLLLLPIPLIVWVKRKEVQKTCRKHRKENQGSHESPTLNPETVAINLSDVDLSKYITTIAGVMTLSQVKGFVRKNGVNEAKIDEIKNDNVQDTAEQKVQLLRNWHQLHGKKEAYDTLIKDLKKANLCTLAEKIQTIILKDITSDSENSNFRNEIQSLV", "test": "cell-based or functional assay"}, "[2]": {"molecular_target": "T2, Murine FasL expressed on murine L929 cells (mouse, UniProt P41047 1-279)", "T2 sequence (looked up)": "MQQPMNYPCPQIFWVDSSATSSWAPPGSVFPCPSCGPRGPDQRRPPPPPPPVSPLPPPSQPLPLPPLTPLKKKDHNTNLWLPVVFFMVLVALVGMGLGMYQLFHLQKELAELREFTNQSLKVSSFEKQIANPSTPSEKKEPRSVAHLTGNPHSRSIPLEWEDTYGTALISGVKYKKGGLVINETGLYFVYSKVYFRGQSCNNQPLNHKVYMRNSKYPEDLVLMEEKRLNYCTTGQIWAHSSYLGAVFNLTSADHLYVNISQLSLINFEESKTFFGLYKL", "test": "cell-based or functional assay"}, "[3]": {"molecular_target": "T3, AIM-II expressed on HEK 293 EBNA cells (UniProt O43557 1-240)", "T3 construct": "whole, on cells", "T3 sequence (O43557 whole entry, the tested form may be a part)": "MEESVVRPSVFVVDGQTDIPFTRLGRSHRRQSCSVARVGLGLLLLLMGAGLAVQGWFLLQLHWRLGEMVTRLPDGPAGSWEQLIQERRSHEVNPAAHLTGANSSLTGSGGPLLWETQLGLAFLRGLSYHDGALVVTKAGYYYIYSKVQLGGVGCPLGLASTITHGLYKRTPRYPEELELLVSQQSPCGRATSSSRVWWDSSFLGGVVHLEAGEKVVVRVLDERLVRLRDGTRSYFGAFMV", "test": "flow cytometry on AIM-II-transfected HEK 293 EBNA cells", "method": "For detecting Fc-fusion protein, cells were stained with FITC-conjugated goat anti-human IgG. […] The cells were analyzed by FACScan (Becton Dickinson)."}, "[4]": {"molecular_target": "T4, Full length TNF-gamma-beta on the cell surface (human, UniProt O95150 1-251)", "T4 construct": "whole, on cells; also called TNF-gamma-beta expressing cells", "T4 sequence (looked up)": "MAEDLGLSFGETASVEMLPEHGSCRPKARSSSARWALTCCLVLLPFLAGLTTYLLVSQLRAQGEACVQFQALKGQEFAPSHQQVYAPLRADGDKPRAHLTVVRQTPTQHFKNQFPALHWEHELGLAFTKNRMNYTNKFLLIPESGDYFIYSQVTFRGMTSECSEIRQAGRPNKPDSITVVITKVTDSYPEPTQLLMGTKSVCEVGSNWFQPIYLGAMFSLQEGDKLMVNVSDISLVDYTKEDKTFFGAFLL", "test": "flow cytometry competition on TNF-gamma-beta expressing cells; competitor DR3-Fc"}, "[5]": {"molecular_target": "T4, Full length TNF-gamma-beta on the cell …", "test": "flow cytometry on HEK293F cells expressing full length TNF-gamma-beta"}}}
{"binder": "B1", "values": [{"measurement": "increase in apoptotic Jurkat cells over untreated controls (annexin FACS)", "setting": "[1]", "result": "~7", "unit": "fold"}]}
{"binder": "B2", "values": [{"measurement": "potency relative to Fas-Fc, killing of A20 cells by murine FasL transfected L929 cells", "setting": "[2]", "result": 100, "unit": "fold"}]}
{"binder": "B3", "values": [{"measurement": "binding result", "setting": "[3]", "result": "binds"}]}
{"binder": "B4", "values": [{"measurement": "binding result", "setting": "[3]", "result": "binds"}]}
{"binder": "B5", "values": [{"measurement": "molar ratio (TR6 to DR3-Fc) at which no DR3-Fc binding was detected", "setting": "[4]", "result": 2, "unit": "mol/mol"}]}
{"binder": "B6", "values": [{"measurement": "binding result", "setting": "[5]", "result": "no binding"}]}
{"binder": "B7", "values": [{"measurement": "binding result", "setting": "[5]", "result": "no binding"}]}
